The target in this test is T1, DJ-1 (human (endogenous in M17D neuroblastoma cells)), Q99497.
T1 chain: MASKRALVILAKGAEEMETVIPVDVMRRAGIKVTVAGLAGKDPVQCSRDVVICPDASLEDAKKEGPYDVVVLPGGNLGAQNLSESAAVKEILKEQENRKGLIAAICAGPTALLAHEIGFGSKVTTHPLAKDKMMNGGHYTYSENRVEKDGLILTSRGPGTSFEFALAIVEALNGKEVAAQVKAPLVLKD
Put plainly: cross-linking. The conditions noted are these: remark: other sources report otherwise.

The values below come from article PMC6408259.

B1: DJ-1, Q99497 1-189 (natural protein)
chain: T1 chain
B1 returned a stoichiometry N of 2.

A word on the stoichiometry N: it is a count of units in the complex or per binding partner.
